In the Human Domainome abundance scans (Beltran et al. 2025) one finds abundance fitness data, which are given here for 91 substances.

± gives the uncertainty stated by the source.

This series can be described thus: abundance fitness (aPCA) (normalised: wild type 0, dead -1); higher = more abundant; growth selection in yeast, the domain comes from the species named. Particulars: Saccharomyces cerevisiae (strain ATCC 204508 / S288c).
Substance “E3 ubiquitin-protein ligase RSP5 S328M, P39940” came in with an abundance fitness of 0.099 ± 0.067.

Substance “E3 ubiquitin-protein ligase RSP5 S328N, P39940” had an abundance fitness of 0.1 ± 0.071.

The substance “E3 ubiquitin-protein ligase RSP5 S328P, P39940” returned an abundance fitness of -0.025 ± 0.064.

“E3 ubiquitin-protein ligase RSP5 S328R, P39940” yielded an abundance fitness of -0.095 ± 0.044.

For the substance “E3 ubiquitin-protein ligase RSP5 S328T, P39940”, the abundance fitness is -0.018 ± 0.12.

Turning to “E3 ubiquitin-protein ligase RSP5 S328V, P39940”, the abundance fitness is -0.07 ± 0.055.

“E3 ubiquitin-protein ligase RSP5 S328Y, P39940”: the abundance fitness came out at 0.036 ± 0.098.

As for “E3 ubiquitin-protein ligase RSP5 S335A, P39940”, the abundance fitness was -0.063 ± 0.044.

Substance “E3 ubiquitin-protein ligase RSP5 S335C, P39940” returned an abundance fitness of -0.147 ± 0.07.

Substance “E3 ubiquitin-protein ligase RSP5 S335D, P39940” came in with an abundance fitness of 0.205 ± 0.14.

In turn, “E3 ubiquitin-protein ligase RSP5 S335E, P39940” registered an abundance fitness of -0.031 ± 0.053.

On to “E3 ubiquitin-protein ligase RSP5 S335F, P39940”, for which the abundance fitness is -0.205 ± 0.11.

Substance “E3 ubiquitin-protein ligase RSP5 S335G, P39940” displayed an abundance fitness of -0.108 ± 0.052.

In turn, “E3 ubiquitin-protein ligase RSP5 S335H, P39940” returned an abundance fitness of -0.079 ± 0.066.

With “E3 ubiquitin-protein ligase RSP5 S335K, P39940”, the abundance fitness was -0.049 ± 0.045.

With “E3 ubiquitin-protein ligase RSP5 S335L, P39940”, the abundance fitness is -0.202 ± 0.046.

On to “E3 ubiquitin-protein ligase RSP5 S335M, P39940”, for which the abundance fitness is -0.086 ± 0.063.

On to “E3 ubiquitin-protein ligase RSP5 S335N, P39940”, for which the abundance fitness was -0.015 ± 0.084.

In the case of “E3 ubiquitin-protein ligase RSP5 S335P, P39940”, the abundance fitness is 0.047 ± 0.38.

As to “E3 ubiquitin-protein ligase RSP5 S335Q, P39940”, the abundance fitness is -0.094 ± 0.051.

Substance “E3 ubiquitin-protein ligase RSP5 S335R, P39940” gave an abundance fitness of -0.129 ± 0.051.

Consider “E3 ubiquitin-protein ligase RSP5 S335T, P39940”, for which the abundance fitness is -0.247 ± 0.087.

In the case of “E3 ubiquitin-protein ligase RSP5 S335V, P39940”, the abundance fitness was -0.141 ± 0.051.

Consider “E3 ubiquitin-protein ligase RSP5 S335W, P39940”, for which the abundance fitness was -0.278 ± 0.064.

Consider “E3 ubiquitin-protein ligase RSP5 S335Y, P39940”, for which the abundance fitness is -0.33 ± 0.087.

For “E3 ubiquitin-protein ligase RSP5 T326A, P39940”, the abundance fitness was -0.023 ± 0.05.

In the case of “E3 ubiquitin-protein ligase RSP5 T326C, P39940”, the abundance fitness is -0.033 ± 0.07.

The substance “E3 ubiquitin-protein ligase RSP5 T326D, P39940” yielded an abundance fitness of 0.094 ± 0.068.

For the substance “E3 ubiquitin-protein ligase RSP5 T326E, P39940”, the abundance fitness turned out to be 0.055 ± 0.052.

“E3 ubiquitin-protein ligase RSP5 T326F, P39940” had an abundance fitness of -0.02 ± 0.09.

On to “E3 ubiquitin-protein ligase RSP5 T326G, P39940”, for which the abundance fitness was -0.18 ± 0.048.

For the substance “E3 ubiquitin-protein ligase RSP5 T326H, P39940”, the abundance fitness was -0.051 ± 0.078.

On to “E3 ubiquitin-protein ligase RSP5 T326I, P39940”, for which the abundance fitness is -0.266 ± 0.2.

Consider “E3 ubiquitin-protein ligase RSP5 T326K, P39940”, for which the abundance fitness was 0.068 ± 0.051.

On to “E3 ubiquitin-protein ligase RSP5 T326L, P39940”, for which the abundance fitness was -0.023 ± 0.048.

Substance “E3 ubiquitin-protein ligase RSP5 T326M, P39940” had an abundance fitness of 0.008 ± 0.07.

“E3 ubiquitin-protein ligase RSP5 T326N, P39940” gave an abundance fitness of 0.105 ± 0.087.

For “E3 ubiquitin-protein ligase RSP5 T326P, P39940”, the abundance fitness is -0.652 ± 0.079.

Substance “E3 ubiquitin-protein ligase RSP5 T326Q, P39940” returned an abundance fitness of -0.071 ± 0.057.

“E3 ubiquitin-protein ligase RSP5 T326R, P39940” displayed an abundance fitness of -0.068 ± 0.042.

The substance “E3 ubiquitin-protein ligase RSP5 T326S, P39940” gave an abundance fitness of 0.014 ± 0.054.

With “E3 ubiquitin-protein ligase RSP5 T326V, P39940”, the abundance fitness was -0.008 ± 0.051.

In turn, “E3 ubiquitin-protein ligase RSP5 T326W, P39940” yielded an abundance fitness of -0.207 ± 0.08.

Substance “E3 ubiquitin-protein ligase RSP5 T326Y, P39940” returned an abundance fitness of -0.061 ± 0.072.

As to “E3 ubiquitin-protein ligase RSP5 T327A, P39940”, the abundance fitness was -0.049 ± 0.046.

“E3 ubiquitin-protein ligase RSP5 T327C, P39940” returned an abundance fitness of -0.001 ± 0.06.

Turning to “E3 ubiquitin-protein ligase RSP5 T327D, P39940”, the abundance fitness stood at 0.121 ± 0.07.

Substance “E3 ubiquitin-protein ligase RSP5 T327E, P39940” registered an abundance fitness of 0.105 ± 0.056.

For the substance “E3 ubiquitin-protein ligase RSP5 T327G, P39940”, the abundance fitness was -0.037 ± 0.046.

“E3 ubiquitin-protein ligase RSP5 T327H, P39940” registered an abundance fitness of 0.019 ± 0.16.

Regarding “E3 ubiquitin-protein ligase RSP5 T327L, P39940”, the abundance fitness was -0.049 ± 0.055.

“E3 ubiquitin-protein ligase RSP5 T327M, P39940” showed an abundance fitness of 0.103 ± 0.077.

Take “E3 ubiquitin-protein ligase RSP5 T327N, P39940”: the abundance fitness came out at 0.12 ± 0.12.

“E3 ubiquitin-protein ligase RSP5 T327P, P39940” registered an abundance fitness of -0.258 ± 0.068.

The substance “E3 ubiquitin-protein ligase RSP5 T327Q, P39940” gave an abundance fitness of -0.112 ± 0.057.

For “E3 ubiquitin-protein ligase RSP5 T327R, P39940”, the abundance fitness is -0.067 ± 0.044.

“E3 ubiquitin-protein ligase RSP5 T327S, P39940” came in with an abundance fitness of 0.038 ± 0.05.

As for “E3 ubiquitin-protein ligase RSP5 T327W, P39940”, the abundance fitness is -0.17 ± 0.053.

The substance “E3 ubiquitin-protein ligase RSP5 T327Y, P39940” registered an abundance fitness of -0.639 ± 0.27.

“E3 ubiquitin-protein ligase RSP5 T342D, P39940”: the abundance fitness was determined as 0.173 ± 0.076.

Take “E3 ubiquitin-protein ligase RSP5 T342E, P39940”: the abundance fitness is -0.377 ± 0.05.

On to “E3 ubiquitin-protein ligase RSP5 T342G, P39940”, for which the abundance fitness was -0.255 ± 0.045.

Turning to “E3 ubiquitin-protein ligase RSP5 T342H, P39940”, the abundance fitness was -0.455 ± 0.3.

For “E3 ubiquitin-protein ligase RSP5 T342K, P39940”, the abundance fitness is -0.824 ± 0.058.

For the substance “E3 ubiquitin-protein ligase RSP5 T342L, P39940”, the abundance fitness was -0.074 ± 0.065.

Substance “E3 ubiquitin-protein ligase RSP5 T342M, P39940” returned an abundance fitness of -0.327 ± 0.17.

In turn, “E3 ubiquitin-protein ligase RSP5 T342N, P39940” returned an abundance fitness of -0.225 ± 0.13.

As for “E3 ubiquitin-protein ligase RSP5 T342P, P39940”, the abundance fitness was -0.556 ± 0.074.

In turn, “E3 ubiquitin-protein ligase RSP5 T342Q, P39940” showed an abundance fitness of -0.226 ± 0.067.

As to “E3 ubiquitin-protein ligase RSP5 T342R, P39940”, the abundance fitness is -0.738 ± 0.044.

Substance “E3 ubiquitin-protein ligase RSP5 T342V, P39940” displayed an abundance fitness of -0.315 ± 0.047.

Substance “E3 ubiquitin-protein ligase RSP5 T342W, P39940” had an abundance fitness of -0.865 ± 0.054.

Turning to “E3 ubiquitin-protein ligase RSP5 T354A, P39940”, the abundance fitness was -0.152 ± 0.052.

“E3 ubiquitin-protein ligase RSP5 T354C, P39940” displayed an abundance fitness of -0.196 ± 0.088.

Substance “E3 ubiquitin-protein ligase RSP5 T354E, P39940” had an abundance fitness of -0.163 ± 0.054.

Turning to “E3 ubiquitin-protein ligase RSP5 T354F, P39940”, the abundance fitness was -0.374 ± 0.093.

Substance “E3 ubiquitin-protein ligase RSP5 T354G, P39940” displayed an abundance fitness of -0.223 ± 0.043.

In turn, “E3 ubiquitin-protein ligase RSP5 T354H, P39940” had an abundance fitness of 0.187 ± 0.14.

As to “E3 ubiquitin-protein ligase RSP5 T354K, P39940”, the abundance fitness is -0.147 ± 0.082.

As for “E3 ubiquitin-protein ligase RSP5 T354L, P39940”, the abundance fitness is -0.266 ± 0.049.

“E3 ubiquitin-protein ligase RSP5 T354P, P39940” showed an abundance fitness of -1.07 ± 0.078.

“E3 ubiquitin-protein ligase RSP5 T354Q, P39940” registered an abundance fitness of -0.165 ± 0.056.

“E3 ubiquitin-protein ligase RSP5 T354R, P39940”: the abundance fitness is -0.219 ± 0.044.

In the case of “E3 ubiquitin-protein ligase RSP5 T354S, P39940”, the abundance fitness was -0.049 ± 0.049.

With “E3 ubiquitin-protein ligase RSP5 T354V, P39940”, the abundance fitness was -0.445 ± 0.043.

For the substance “E3 ubiquitin-protein ligase RSP5 T354W, P39940”, the abundance fitness was -0.658 ± 0.065.

Regarding “E3 ubiquitin-protein ligase RSP5 T356A, P39940”, the abundance fitness was -0.237 ± 0.048.

“E3 ubiquitin-protein ligase RSP5 T356C, P39940” returned an abundance fitness of 0.032 ± 0.064.

“E3 ubiquitin-protein ligase RSP5 T356D, P39940” returned an abundance fitness of -0.405 ± 0.08.

Substance “E3 ubiquitin-protein ligase RSP5 T356E, P39940” registered an abundance fitness of -0.3 ± 0.054.

On to “E3 ubiquitin-protein ligase RSP5 T356G, P39940”, for which the abundance fitness was -0.465 ± 0.044.
